The record followed here is patent US20220289861A1 (ONCORESPONSE, published 2022).

This experiment addresses T1, His-tagged recombinant human CD163 (R&D Systems, No. 1607-CD-050) (human, UniProt Q86VB7 42-1050, limits assumed).
T1 construct: Bought protein; also called huCD163; not shown: His tag
The experiment can be described thus: ELISA on plate-coated recombinant human CD163 (5 ug/mL), anti-human IgG F(ab')2 HRP. As for the experimental part: AB101 binding to His-tagged recombinant human CD163 (R&D Systems, No. 1607-CD-050) and recombinant murine CD163 (R&D Systems, No. 7435-CD-050) proteins was determined using ELISA. Recombinant proteins were diluted in PBS to 5 μg/mL and added to 384-well High binding ELISA plates (Greiner Bio-One, No. 781061) at 25 μL per well and incubated at 4° C. overnight. The plates were washed three times with PBS, using the BioTek ELx405 Select microplate washer (wash program ELISA_384_PBS_3×_wash) and then blocked with 90 μL/well of blocking buffer (2% nonfat, dry milk/PBS+0.05% Tween 20) for 1 hr at RT.
After blocking, 25 μL per well of primary antibodies were added to the plates and incubated for 1 hr at room temp. The test antibody was AB101; the control anti-huCD163 antibody was a commercially available antibody in murine IgG1 framework (R&D Systems, #MAB1607); the isotype controls were a proprietary mAb, in human IgG1, human FcNull, and murine IgG1 frameworks, with known specificity. After primary antibody binding, plates were washed three times with PBS using the EL405x (wash program ELISA_384_PBS_3×_wash). […] After development, the reaction was stopped by adding 25 μL per well of 0.3 M HCl and plates were read using the SpectraMax M5e instrument at 450 nm.
(In an ELISA, binding on a coated surface is turned into a signal by an enzyme label.)

T1 sequence (Q86VB7 42-1050 limits assumed): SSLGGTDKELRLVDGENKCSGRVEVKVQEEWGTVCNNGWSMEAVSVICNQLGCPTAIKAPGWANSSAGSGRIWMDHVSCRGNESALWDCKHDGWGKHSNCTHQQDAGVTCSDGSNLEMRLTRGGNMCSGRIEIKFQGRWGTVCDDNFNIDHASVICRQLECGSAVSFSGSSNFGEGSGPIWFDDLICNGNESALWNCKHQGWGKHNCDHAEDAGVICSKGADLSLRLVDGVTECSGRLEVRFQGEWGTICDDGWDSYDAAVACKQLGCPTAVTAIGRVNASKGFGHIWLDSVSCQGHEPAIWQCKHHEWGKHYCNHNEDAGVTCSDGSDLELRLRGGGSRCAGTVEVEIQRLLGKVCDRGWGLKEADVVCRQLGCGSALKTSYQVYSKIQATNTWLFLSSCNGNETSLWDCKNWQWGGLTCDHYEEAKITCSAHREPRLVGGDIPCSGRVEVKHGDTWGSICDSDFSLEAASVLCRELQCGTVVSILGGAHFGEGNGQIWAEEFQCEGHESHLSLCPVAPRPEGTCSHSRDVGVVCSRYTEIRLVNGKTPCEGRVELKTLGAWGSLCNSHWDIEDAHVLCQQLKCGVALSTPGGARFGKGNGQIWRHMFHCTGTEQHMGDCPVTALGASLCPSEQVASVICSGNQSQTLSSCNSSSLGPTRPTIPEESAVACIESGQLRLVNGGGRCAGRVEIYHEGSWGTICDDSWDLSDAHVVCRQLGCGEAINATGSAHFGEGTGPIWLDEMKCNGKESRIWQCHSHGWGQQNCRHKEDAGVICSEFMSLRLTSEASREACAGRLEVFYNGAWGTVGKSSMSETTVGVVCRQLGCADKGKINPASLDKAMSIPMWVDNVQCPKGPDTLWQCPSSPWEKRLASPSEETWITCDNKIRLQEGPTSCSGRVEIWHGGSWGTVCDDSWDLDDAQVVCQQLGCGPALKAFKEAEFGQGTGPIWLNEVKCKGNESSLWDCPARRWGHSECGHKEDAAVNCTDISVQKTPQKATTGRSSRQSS

B1: AB102 (antibody, human IgG1, kappa)
heavy: EVQLVESGGGVVQPGRSLRLSCAASGFTFSSYAMHWVRQAPGKGLEWVAVISYDGSNKYYADSVKGRFTISRDNSKNTLYLQMNSLRAEDTAVYYCARENVRPYYDFWSGYYSEYYYYGMDVWGQGTTVTVSSASTKGPSVFPLAPSSKSTSGGTAALGCLVKDYFPEPVTVSWNSGALTSGVHTFPAVLQSSGLYSLSSVVTVPSSSLGTQTYICNVNHKPSNTKVDKRVEPKSCDKTHTCPPCPAPEFEGGPSVFLFPPKPKDTLMISRTPEVTCVVVDVSHEDPEVKFNWYVDGVEVHNAKTKPREEQYNSTYRVVSVLTVLHQDWLNGKEYKCKVSNKALPASIEKTISKAKGQPREPQVYTLPPSREEMTKNQVSLTCLVKGFYPSDIAVEWESNGQPENNYKTTPPVLDSDGSFFLYSKLTVDKSRWQQGNVFSCSVMHEALHNHYTQKSLSLSPGK
light: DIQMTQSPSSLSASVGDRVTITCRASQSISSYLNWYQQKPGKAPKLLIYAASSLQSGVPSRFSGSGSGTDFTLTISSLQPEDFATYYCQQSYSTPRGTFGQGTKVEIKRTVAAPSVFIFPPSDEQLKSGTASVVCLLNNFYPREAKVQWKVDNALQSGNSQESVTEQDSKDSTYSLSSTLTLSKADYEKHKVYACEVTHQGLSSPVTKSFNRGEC
notes: Biotinylated for the PFA immunoprecipitation and AF647-conjugated for flow cytometry; also called AB101 FcNull antibody; AB101 in FcNull framework
For the molecule B1, the EC50 (read off the curve) (usually the concentration giving half of the maximal effect) was around 1 nM.
